Results as given in paper PMC5810956 (Immunity, 2018).
Substitutions are numbered along the chain they refer to.

B1: K03.1-12 lineage unmutated common ancestor (UCA) Fab (tag removed, for binding studies) (Fab, V domains shown)
VH: not shown
VL: QSALTQPASVSGSPGQSITISCTGTSSDVGSYNLVSWYQQHPGKAPKLMIYEGSKRPSGVSNRFSGSKSGNTASLTISGLQAEDEADYYCCSYAGSVVFGGGTKLTVL
B2: I-11 Fab (inferred evolutionary intermediate of the K03.1-12 lineage) (Fab, V domains shown)
VH: not shown
VL: B1 VL with I18V
B3: K03.12 Fab (tag removed, for binding studies) (Fab, V domains shown)
VH: EVQLVQSGAEVKKPGASVKVSCKTSGYTFTAYYLHWVRQAPGQGFEWMAWINPNTGDTNYAQKFQGRVTLSRDTSITTAYMELTRLRSDDTAVYYCAKDLTLMYVFDSGWARGAHDYYGMDVWGQGTTVAVSG
VL: PSALTQPASVSGSPGQSVTISCTGTNSDVGTFDLVSWYQQYPGKAPKLIIYEGSRRPSGVSDRFSGSKSGNTASLTISGLQAEDEADYYCSSYAGSVVFGGGTKLTVL
B4: K03.12 Fab for crystallization (noncleavable 6xHis tag) (Fab, V domains shown)
VH: B3 VH
VL: B3 VL

Tests used:
[1] = target: HA head of A/Florida/904/2000 (H1N1) (Influenza A virus A/Florida/904/2000 …, UniProt Q91R26, strain); assay: BLI
[2] = target: T1, HA head domain of A/Texas/50/2012 (H3N2) (Influenza A virus A/Texas/50/2012 (H3N2), strain); assay: BLI
[3] = target: T1, HA head domain of A/Texas/50/2012 (H3N2); assay: crystal structure

Binder	binding result [1]	binding result [2]	binding result [3]
B1	binds	binds	
B2	binds	binds	
B3	binds	binds	
B4			binds
